Assay results published in US7662388B2, “Endogenous peptide and active subfragments thereof” (Innoventus Project AB, priority 2003, dated 2010).

Columns and labels:
T241 fibrosarcoma cells [1] = assay: animal study Pep2, fibrosarcoma tumour growth; assay type: in vivo; settings: 5 mg/kg/day s.c. daily, mice bearing fibrosarcoma
Experimental: Tumour study: Female, 5 week old, C57BL6/J mice (Mollegard/Bomhultgard, Denmark) were injected with 0.5×10^6 T241 fibrosarcoma cells subcutaneously (s.c.) into the left flank. Animals carrying palpable tumours were randomised (n=5-10 animals/treatment group) and received treatment with vehicle (Zn-acetate in NaCl), 5 mg/kg/day of HIS1 (=full-length HRGP) or Pep2, in a volume of 100 microliters, given as s.c. injections daily, in the right flank. The tumours were measured with a caliper once a day, in a blind procedure, and volumes were calculated by the formula […]×width^2×length. When the tumours reached the upper limit of 2 cm^3, the mice were sacrificed. The animals were anesthetised with isoflurane (Forene; Abbott) during all manipulations.

primary BCE cells [2] = assay: comparative study pep2/pep3, chemotaxis; assay type: cell-based, bovine; settings: 50 ng/ml peptide, FGF-2 10 ng/ml, Zn2+-acetate
Experimental: Primary endothelial cells were starved over night in 0.5% normal calf serum. A migration assay was performed in a modified Boyden chamber as described earlier (Auerbach et al., 1991) using micropore polycarbonate filters (8 μm thick, 8 μm pore) coated with type-1 collagen solution at 100 μg/ml (Vitrogen 100, Collagen Corp). Cells were trypsinized and resuspended at 7.5×10^5 cells/ml in Dulbecco's modified essential medium (Invitrogen) containing 0.25% BSA and Trasylol at 1000 KIE. The cell suspension was added in the upper chamber and FGF-2 (10 ng/ml), HRGP (100 ng/ml), peptide 2 or 3 (50 ng/ml) in medium containing 0.25% BSA were added to the lower chamber. The peptides were dissolved in PBS containing a 10-fold molar excess (Zn:peptide) of Zn^2+-acetate. After 5 h at 37° C., cells that had migrated through the filter were stained with Giemsa and counted using the Easy Image Analysis software. All samples were analyzed in at least six wells for each treatment. Results of the study are illustrated in FIG. 7.

primary BCE cells [3] = assay: dose response study Pep2, chemotaxis of BCE cells; assay type: cell-based, bovine; settings: 20, 50 or 100 ng/ml, FGF-2 10 ng/ml, Zn2+-acetate
Experimental: A migration assay was performed in a modified Boyden chamber as described earlier (Auerbach et al., 1991) using micropore polycarbonate filters (8 μm thick, 8 μm pore) coated with type-1 collagen solution at 100 μg/ml (Vitrogen 100, Collagen Corp). BCE Cells were trypsinised and resuspended at 7.5×10^5 cells/ml in Dulbecco's modified essential medium (Invitrogen) containing 0.25% BSA and Trasylol at 1000 KIE. The cell suspension was added in the upper chamber and FGF-2 (10 ng/ml), and/or peptide 2 (20, 50 or 100 ng/ml) in medium containing 0.25% BSA were added to the lower chamber. The peptides were dissolved in PBS containing a 10-fold molar excess (Zn:peptide) of Zn^2+-acetate. After 5 h at 37° C., cells that had migrated through the filter were stained with Giemsa and counted using an the Easy Image Analysis software. All samples were analysed in at least six wells for each treatment and at several separate occasions.

[4] = tested on: chicken chorioallantoic membrane (CAM); assay: chicken chorioallantoic membrane (CAM) angiogenesis assay; assay type: in vivo; settings: for growth factor-induced CAM angiogenesis (newly formed vessels): FGF-2 or VEGF-A 0.2 mg per filter, HRGP 3 mg per filter, three days
Experimental: The effect of HRGP on anglogenesis was tested in the chicken chorioallantoic membrane (CAM) assay.
The conditions for the chorioallantoic membrane (CAM) assay followed essentially a previously described procedure (Friedlander et al (1995), Dixelius et al, (2000)). FGF-2 (Boehringer Mannheim) and VEGF-A (Peprotech) was used at 0.2 mg per filter and purified pHRGP or rHRGP at 3 mg per filter. The treated CAM's were inspected in a light microscope and the score, from 0 (low) to 3 (high) was based on the number of vessel branch points. Average values for 5-6 embryos were recorded.
A filter disc soaked in vehicle or growth factor, with or without HRGP, was placed on top of the CAM in the vicinity of a large vessel and incubated for three days. Treatment of the CAM with growth factors, such as FGF-2, stimulated angiogenesis (FIG. 1C; Table 1).

T241 fibrosarcoma cells [5] = assay: fibrosarcoma tumour growth in mice (HRGP); assay type: in vivo; settings: 4 mg/kg/day s.c. daily, control PBS, 11 days
Experimental: Animal work was carried out at the local animal facility and was approved by the Uppsala University board of animal experimentation and thus performed according to the UKCCCR guidelines for the welfare of animals in experimental neoplasia (Workman et al (1988)). The mice were anesthetized with isoflurane (Forene; Abbott) during all manipulations. Female, 5 week old, C57BL6/1 mice (Mollegard/Bomhultgard, Denmark) were injected with 0.5×10^6 T241 fibrosarcoma cells subcutaneously (s.c.) into the left flank. Animals carrying palpable tumours were randomized (n=7-10 animals/treatment group) and received treatment with vehicle (PBS), 4 mg/kg/day of pHRGP or 5 mg/kg/day of human IgG or His-HRGP, given as daily subcutaneous injections in the right flank. The tumours were measured with a caliper once a day, in a blind procedure, and volumes were calculated by the formula […]. When the tumours reached the upper limit of 2 cm^3, the mice were sacrificed. Three animals in each group were perfused with 4% paraformaldehyde in PBS pH 7.4. Tumours were embedded in paraffin according to standard histological procedures and sectioned at […] thickness.
C57/bl6 mice were inoculated subcutaneously with T241 fibrosarcoma cells on their left flank and when the tumours were palpable (after 4-6 days), a daily treatment was initiated with HRGP or control (PBS; FIG. 2A, or human IgG; FIG. 2B). Endostatin was included in one study for comparison (FIG. 2B). The treatment was given as subcutaneous injections in the right flank until the size of the control tumours reached the upper limit of […] (11 days; FIG. 2A, 14 days; FIG. 2B). Injections with both pHRGP (4 mg/kg/day) and His-HRGP (5 mg/kg/day) led to a drastic reduction in tumour growth and at the time of sacrifice, the size of the tumours was reduced by 67% (FIG. 2A) and 61% (FIG. 2B) respectively, compared to control-treated animals. Endostatin treatment (25 mg/kg/day) lacked significant inhibitory effect on tumour growth in this model (32% decrease).

[6] = tested on: NIH 3T3 murine fibroblasts; assay: chemotaxis assay in modified Boyden chamber, NIH 3T3 fibroblasts; assay type: cell-based; settings: 100 ng/ml HRGP
Experimental: (§1) The porcine aortic endothelial (PAE) cell line overexpressing FGF receptor-1 (FGFR-1) (Wennström et al 1992) was cultured in Ham's F12/10% fetal bovine serum (FCS) and NIH 3T3 murine fibroblasts were cultured in Dulbecco's modified medium (DMEM)/10% newborn calf serum (NCS). F12, DMEM and serum were bought from Life Technologies. Primary bovine adrenal cortex capillary endothelial (BCE) cells were cultured on gelatin-coated dishes in DMEM/10% NCS and 2 ng/ml FGF-2 (Boehringer Mannheim). For chemotaxis assays, both PAE and NIH 3T3 cells were serum-starved over night in 0.1% BSA and BCE cells in 0.5% NCS. Human embryonic kidney (HEK) 293-EBNA cells were cultured in DMEM/10% FCS. Approximately every second month they were given 0.25 mg/ml G418 (Calbiochem) to ensure positive selection of the EBNA-1 expressing cells.
A migration assay was performed in a modified Boyden chamber as described earlier (Auerbach et al., 1991) using micropore polycarbonate filters (8 μm thick, 8 μm pore) coated with type-1 collagen solution at 100 μg/ml (Vitrogen 100, Collagen Corp). […] After 5 h at 37° C., migrated cells were stained with Giemsa and counted using an image analysis software (Easy Image Analysis) from Tekno Optik AB, Sweden. All samples were analysed in at least six parallel wells for each treatment.

primary BCE cells [7] = assay: chemotaxis (migration) assay in modified Boyden chamber, BCE cells; assay type: cell-based, bovine
Experimental: as §1
A migration assay was performed in a modified Boyden chamber as described earlier (Auerbach et al., 1991) using micropore polycarbonate filters (8 μm thick, 8 μm pore) coated with type-1 collagen solution at 100 μg/ml (Vitrogen 100, Collagen Corp). BCE, PAE/FGFR-1 or NIH 3T3 cells were preincubated or not with HRGP (100 ng/ml) for 30 min, trypsinised and resuspended at a concentration of 7.5×10^5 cells/ml in Dulbecco's modified essential medium (Invitrogen) containing 0.25% BSA and Trasylol at 1000 KIE. FGF-2 and VEGF-A was used at 5 ng/ml, HRGP and the protein C inhibitor (PCI) at 100 ng/ml and BSA at 0.25%. After 5 h at 37° C., migrated cells were stained with Giemsa and counted using an image analysis software (Easy Image Analysis) from Tekno Optik AB, Sweden. All samples were analysed in at least six parallel wells for each treatment.

## Pep2: amino acid subfragment of 35 amino acids, amino acids 330-364 of mature human HRGP (DLHPHKHHSHEQHPHGHHPHAHHPHEHDTHRQHPH; listed as Homo sapiens)
T241 fibrosarcoma cells [1]
  tumour growth (tumour volume): inhibits tumor growth
Primary BCE cells [2]
  FGF-2-induced chemotaxis of primary BCE cells: inhibited
Primary BCE cells [3]
  FGF-2-induced chemotaxis of primary BCE cells, dose response: dose-dependently inhibited

## Pep3: 25 amino acid subfragment of the central region, amino acids 365-389 of mature human HRGP, described in WO02/064621 (GHHPHGHHPHGHHPHGHHPHGHHPH; listed as Homo sapiens) [reference compound]
Primary BCE cells [2]; listed as SEQ.ID.NO:4
  FGF-2-induced chemotaxis of primary BCE cells: not to be active for inhibiting angiogenesis

B1: pHRGP: HRGP purified from human plasma (protein)
chain: VSPTDCSAVEPEAEKALDLINKRRRDGYLFQLLRIADAHLDRVENTTVYYLVLDVQESDCSVLSRKYWNDCEPPDSRRPSEIVIGQCKVIATRHSHESQDLRVIDFNCTTSSVSSALANTKDSPVLIDFFEDTERYRKQANKALEKYKEENDDFASFRVDRIERVARVRGGEGTGYFVDFSVRNCPRHHFPRHPNVFGFCRADLFYDVEALDLESPKNLVINCEVFDPQEHENINGVPPHLGHPFHWGGHERSSTTKPPFKPHGSRDHHHPHKPHEHGPPPPPDERDHSHGPPLPQGPPPLLPMSCSSCQHATFGTNGAQRHSHNNNSSDLHPHKHHSHEQHPHGHHPHAHHPHEHDTHRQHPHGHHPHGHHPHGHHPHGHHPHGHHPHCHDFQDYGPCDPPPHNQGHCCHGHGPPPGHLRRRGPGKGPRPFHCRQIGSVYRLPPLRKGEVLPLPEANFPSFPLPHHKHPLKPDNQPFPQSVSESCPGKFKSGFPQVSMFFTHTFPK
[4]
  growth factor-induced CAM angiogenesis (newly formed vessels): efficient suppression of newly formed vessels
[4]; FGF-2 or VEGF-A together with pHRGP, 3 mg per filter
  effect on pre-established vessels of the CAM: remained unaffected
T241 fibrosarcoma cells [5]
  reduction of tumour size compared to control-treated animals at sacrifice: 67%

B2: rHRGP: recombinant HRGP produced in HEK-293-EBNA cells without a His-tag (protein)
chain: B1 chain
[4]
  growth factor-induced CAM angiogenesis (newly formed vessels): The same result was obtained
[6]
  FGF-2-induced chemotaxis of NIH 3T3 murine fibroblasts: not affected
Primary BCE cells [7]; 100 ng/ml HRGP
  FCS-induced chemotaxis of BCE cells: not inhibited
Primary BCE cells [7]; 100 ng/ml HRGP, VEGF-A 5 ng/ml
  VEGF-A-induced chemotaxis of BCE cells: attenuated
Primary BCE cells [7]; 100 ng/ml protein, FGF-2 5 ng/ml, 5 h
  FGF-2-induced chemotaxis of BCE cells: completely blocked
